This is an account of results in paper PMC8617759, “Characterization of a Novel L-Asparaginase from Mycobacterium gordonae with Acrylamide Mitigation Potential” (Foods, 2021).

The data set concerns NC(=O)C[C@H](N)C(=O)O. Put plainly: Nessler ammonia assay, OD436; Lineweaver-Burk. It is filed as biochemical, Mycobacterium gordonae. Conditions: 50 mM PBS pH 8.0, 37 °C, 2 min, 1-20 mM substrate.

Turning to “GmASNase (Mycobacterium gordonae L-asparaginase) (Mycobacterium gordonae)”, the Km was found to be 6.025 mM and the kcat is reported as 11,864.71 min^-1.

For orientation: Km means the substrate concentration at which the rate is half of its maximum.
